The text below walks through data of publication PMC7334588.

This assay has as its target RSC chromatin remodeling complex (S. cerevisiae) (UniProt P32597). In words: BLI. In general terms: In BLI a coated tip is dipped into the sample, and binding shifts an interference pattern.
Sequence of UniProt P32597 (P32597 whole entry, looked up, one chain of several): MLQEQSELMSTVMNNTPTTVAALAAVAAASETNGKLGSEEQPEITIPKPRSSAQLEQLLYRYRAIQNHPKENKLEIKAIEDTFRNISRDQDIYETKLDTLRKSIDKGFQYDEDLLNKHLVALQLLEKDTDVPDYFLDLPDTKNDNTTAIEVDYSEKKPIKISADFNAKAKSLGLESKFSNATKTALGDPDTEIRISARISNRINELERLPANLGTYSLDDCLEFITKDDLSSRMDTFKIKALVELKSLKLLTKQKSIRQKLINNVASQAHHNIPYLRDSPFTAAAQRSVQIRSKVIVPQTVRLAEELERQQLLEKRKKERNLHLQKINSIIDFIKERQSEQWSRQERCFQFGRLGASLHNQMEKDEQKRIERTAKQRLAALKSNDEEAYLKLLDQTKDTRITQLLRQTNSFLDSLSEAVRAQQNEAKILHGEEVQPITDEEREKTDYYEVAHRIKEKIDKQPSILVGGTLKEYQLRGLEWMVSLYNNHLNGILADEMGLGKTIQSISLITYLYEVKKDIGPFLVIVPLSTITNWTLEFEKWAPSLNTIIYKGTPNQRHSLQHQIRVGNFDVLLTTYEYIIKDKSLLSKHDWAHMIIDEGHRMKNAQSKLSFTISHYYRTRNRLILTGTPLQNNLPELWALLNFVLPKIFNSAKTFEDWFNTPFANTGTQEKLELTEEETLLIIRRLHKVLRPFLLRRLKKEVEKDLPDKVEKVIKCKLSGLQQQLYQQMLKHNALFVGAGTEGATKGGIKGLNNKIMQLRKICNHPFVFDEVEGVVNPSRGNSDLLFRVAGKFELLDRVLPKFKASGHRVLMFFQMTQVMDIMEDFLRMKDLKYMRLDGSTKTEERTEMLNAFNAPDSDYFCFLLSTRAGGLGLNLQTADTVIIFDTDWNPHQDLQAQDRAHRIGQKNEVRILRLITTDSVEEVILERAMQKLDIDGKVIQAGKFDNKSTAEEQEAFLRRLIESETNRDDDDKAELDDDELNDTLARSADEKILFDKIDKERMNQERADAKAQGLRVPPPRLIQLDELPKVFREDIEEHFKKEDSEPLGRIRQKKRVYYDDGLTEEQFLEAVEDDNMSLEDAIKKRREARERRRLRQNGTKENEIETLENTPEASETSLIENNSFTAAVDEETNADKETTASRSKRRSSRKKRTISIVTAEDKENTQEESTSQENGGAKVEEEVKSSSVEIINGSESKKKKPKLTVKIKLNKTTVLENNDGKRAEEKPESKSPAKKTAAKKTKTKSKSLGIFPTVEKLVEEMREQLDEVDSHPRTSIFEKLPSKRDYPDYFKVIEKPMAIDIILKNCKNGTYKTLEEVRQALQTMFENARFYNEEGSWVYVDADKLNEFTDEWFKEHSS

“SUMOylated nucleosome with an in-frame fusion of SUMO to H2B (from UniProt P02281 6-126) (complex)” came in with a fold higher affinity than for unmodified nucleosomes of 2 fold.
